Test results as given in paper PMC6989803, “Synechocystis KaiC3 Displays Temperature- and KaiB-Dependent ATPase Activity and Is Important for Growth in Darkness” (Journal of Bacteriology, 2019).
Each block holds one molecule with its values, some of them ahead of it.

Legend:
[1] = molecular target: KaiC3 wild-type protein fused to an N-terminal Strep-tag (Synechocystis sp. strain PCC 6803); experiment: SEC; Strep-KaiC3 on Sephacryl S300 HR HiPrep 16/60; 20 or 50 mM Tris-HCl (pH 8.0), 150 mM NaCl, 2 mM DTT, 1 mM ATP, 5 mM MgCl2
[2] = molecular target: the molecule itself; experiment: SEC; KaiB1 and KaiB3 on Sephacryl S200 HR HiPrep 16/60 or Superdex 200 Increase 10/30 GL; 20 or 50 mM Tris-HCl (pH 8.0), 150 mM NaCl, 2 mM DTT

stoichiometry N [1]: 6
Molecule: KaiC3 wild-type protein fused to an N-terminal Strep-tag (enzyme)

B1: KaiB3, recombinant, GST tag cleaved off (natural protein, Synechocystis sp. strain PCC 6803, UniProt Q55819 1-102, looked up)
chain: MDMNRIVLRLYITGNSVRSQQAIANIYRICQEDLGDQYNVEIIDVLEQPQRAEEEKIMVTPTLIKQLPPPLQRIIGDMSNTEKVLLGLDIVPEGLQVRLPED
notes: Eluted as a monomer and as a tetramer; the two fractions were tested separately in the ATPase assay; also called KaiB3 monomer; KaiB3 tetramer
stoichiometry N [2]: 4

B2: KaiB1, recombinant, GST tag cleaved off (natural protein, Synechocystis sp. strain PCC 6803, UniProt P74645 1-105, looked up)
chain: MSPFKKTYVLKLYVAGNTPNSVRALKMLKNILEQEFQGVYALKVIDVLKNPQLAEEDKILATPTLAKILPPPVRKIIGDLSDREKVLIGLDLLYDEIREREAEDQ
notes: Eluted only as a tetramer from size exclusion chromatography; also called KaiB1 tetramer
stoichiometry N [2]: 4
